According to paper PMC12603107 (2025):

Target: T1, CI-M6P/IGF2R domains 11-13 (Homo sapiens, UniProt P11717)
T1 chain: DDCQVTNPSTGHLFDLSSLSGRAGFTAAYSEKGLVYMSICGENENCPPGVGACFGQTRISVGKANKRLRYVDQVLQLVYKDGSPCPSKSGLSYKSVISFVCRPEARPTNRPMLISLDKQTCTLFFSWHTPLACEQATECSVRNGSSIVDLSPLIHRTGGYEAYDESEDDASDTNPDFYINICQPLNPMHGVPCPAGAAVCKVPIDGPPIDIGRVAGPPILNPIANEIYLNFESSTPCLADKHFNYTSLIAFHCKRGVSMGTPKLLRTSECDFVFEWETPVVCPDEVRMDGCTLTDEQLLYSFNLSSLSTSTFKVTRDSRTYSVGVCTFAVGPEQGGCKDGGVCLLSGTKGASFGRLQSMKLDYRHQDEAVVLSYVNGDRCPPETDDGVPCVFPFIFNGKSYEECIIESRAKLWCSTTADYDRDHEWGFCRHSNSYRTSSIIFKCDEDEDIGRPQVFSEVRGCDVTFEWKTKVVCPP
Assay: competitive ELISA (biotinylated IGF2)

B1: IGF2 peptide (des1-6) 7-67 (protein)
chain: KSMLVLLTFLAFASCCIAAYRPSETLCGGELVDTLQFVCGDRGFYFSRPASRVSRRSRGIV
IC50: ~5 nM
